Laboratory results from patent US20050084449A1.

What was measured:
[1] = biological target: TIM-1 antigen, cell membrane-bound (on ACHN, CAKI-2, CAKI-1 renal cancer cells and polarized/activated human CD4+ T cells) (human) (UniProt Q96D42); test: FACS on activated T cells, Day 0, -MMPI
[2] = biological target: TIM-1 antigen, cell membrane-bound (on ACHN, CAKI-2, CAKI-1 renal cancer cells and polarized/activated human CD4+ T cells) (human) (UniProt Q96D42); test: FACS on activated T cells, Day 4, +MMPI
[3] = biological target: TIM-1 antigen, cell membrane-bound (on ACHN, CAKI-2, CAKI-1 renal cancer cells and polarized/activated human CD4+ T cells) (human) (UniProt Q96D42); test: FACS on activated T cells, Day 2, -MMPI
[4] = biological target: TIM-1 antigen, cell membrane-bound (on ACHN, CAKI-2, CAKI-1 renal cancer cells and polarized/activated human CD4+ T cells) (human) (UniProt Q96D42); test: FACS on activated T cells, Day 0, +MMPI
[5] = biological target: TIM-1 antigen, cell membrane-bound (on ACHN, CAKI-2, CAKI-1 renal cancer cells and polarized/activated human CD4+ T cells) (human) (UniProt Q96D42); test: FACS on activated T cells, Day 4, -MMPI
[6] = biological target: TIM-1 antigen, cell membrane-bound (on ACHN, CAKI-2, CAKI-1 renal cancer cells and polarized/activated human CD4+ T cells) (human) (UniProt Q96D42); test: FACS on activated T cells, Day 5, -MMPI
[7] = biological target: TIM-1 antigen, cell membrane-bound (on ACHN, CAKI-2, CAKI-1 renal cancer cells and polarized/activated human CD4+ T cells) (human) (UniProt Q96D42); test: FACS on activated T cells, Day 5, +MMPI
[8] = biological target: TIM-1 antigen, cell membrane-bound (on ACHN, CAKI-2, CAKI-1 renal cancer cells and polarized/activated human CD4+ T cells) (human) (UniProt Q96D42); test: FACS on activated T cells, Day 1, +MMPI
[9] = biological target: TIM-1 antigen, cell membrane-bound (on ACHN, CAKI-2, CAKI-1 renal cancer cells and polarized/activated human CD4+ T cells) (human) (UniProt Q96D42); test: FACS on activated T cells, Day 2, +MMPI
[10] = biological target: TIM-1 antigen, cell membrane-bound (on ACHN, CAKI-2, CAKI-1 renal cancer cells and polarized/activated human CD4+ T cells) (human) (UniProt Q96D42); test: FACS on activated T cells, Day 1, -MMPI

TIM-1 antigen, cell membrane-bound (on ACHN, CAKI-2, CAKI-1 renal cancer cells and polarized/activated human CD4+ T cells) (human), sequence (Q96D42 21-364): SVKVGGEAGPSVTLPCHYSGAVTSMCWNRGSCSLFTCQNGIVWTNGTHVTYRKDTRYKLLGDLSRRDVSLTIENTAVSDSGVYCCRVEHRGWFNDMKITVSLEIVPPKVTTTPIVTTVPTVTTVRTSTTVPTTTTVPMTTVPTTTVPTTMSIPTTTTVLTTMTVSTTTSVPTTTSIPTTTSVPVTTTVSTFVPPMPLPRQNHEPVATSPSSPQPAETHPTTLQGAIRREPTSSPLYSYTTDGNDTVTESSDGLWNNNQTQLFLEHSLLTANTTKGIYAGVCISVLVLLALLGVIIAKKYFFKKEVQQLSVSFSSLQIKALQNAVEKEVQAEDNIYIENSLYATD

isotype matched control mAb PK16.3 (antibody)
Percent of activated T cells that express TIM-1 (percent stained) [1]: 1% | Percent of activated T cells that express TIM-1 (percent stained) [2]: 2% | Percent of activated T cells that express TIM-1 (percent stained) [3]: 3% | Percent of activated T cells that express TIM-1 (percent stained) [4]: 1% | Percent of activated T cells that express TIM-1 (percent stained) [5]: 1% | Percent of activated T cells that express TIM-1 (percent stained) [6]: 1% | Percent of activated T cells that express TIM-1 (percent stained) [7]: 2% | Percent of activated T cells that express TIM-1 (percent stained) [8]: 2% | Percent of activated T cells that express TIM-1 (percent stained) [9]: 6% | Percent of activated T cells that express TIM-1 (percent stained) [10]: 3%
